Values belong to the molecule of their own block, whether it stands above or below them.
Key:
Format in all cases: biochemical
[1] = Quantification of produced N-acylamino acid (UV 210 nm) using purified acylamino acid synthetase; conditions: 5 mM L-Asp, 5 mM sodium fatty acid, 200 μg/mL enzyme, 25° C., 24 hours
Experimental: 0.1 mL of a reaction solution containing 50 mM Tris-HCl, 5 mM amino acid, 5 mM sodium fatty acid, 10 mM ATP, 10 mM MgCl2, 1 mM DTT, 200 μg/mL of the purified enzyme, pH 8.0 was incubated at 25° C. for 24 hours. As amino acids, L-Asp was used in AtGH3-6, OsGH3-8, AtGH3-5, AtGH3-12, and Gly or L-Ala was used in CfHP. After completion of the reaction, 0.4 mL of the reaction stop solution (1% (v/v) phosphoric acid, 75% (v/v) methanol) was added, and the mixture was filtrated through the filter followed by being subjected to the UPLC-MS analysis to quantify the produced N-acylamino acid by detection at UV 210 nm. The condition for the UPLC-MS analysis is as descried in Example 2. As a result of the analysis, 3.9 mM of Nα-capryloyl-L-aspartic acid, 4.5 mM of Nα-caprinoyl-L-aspartic acid and 2.2 mM of Nα-lauroyl-L-aspartic acid were detected when AtGH3-6 was used; 4.3 mM of Nα-capryloyl-L-aspartic acid, 4.6 mM of Nα-caprinoyl-L-aspartic acid and 3.5 mM of Nα-lauroyl-L-aspartic acid were detected when OsGH3-8 was used; 4.1 mM of Nα-capryloyl-L-aspartic acid, 4.6 mM of Nα-caprinoyl-L-aspartic acid and 2.5 mM of Nα-lauroyl-L-aspartic acid were detected when AtGH3-5 was used; 1.6 mM of Nα-capryloyl-L-aspartic acid, 0.6 mM of Nα-caprinoyl-L-aspartic acid and 0.2 mM of Nα-lauroyl-L-aspartic acid were detected when AtGH3-12 was used; 4.5 mM of Nα-capryloylglycine, 4.6 mM of Nα-caprinoylglycine, 0.1 mM of Nα-lauroylglycine, 3.1 mM of Nα-capryloyl-L-alanine, 3.6 mM of Nα-caprinoyl-L-alanine and 0.4 mM of Nα-lauroyl-L-alanine were detected when CfHP was used.

[2] = Synthesis of N-lauroylamino acid / N-lauroylamino acid derivative using purified acylamino acid synthetase, UPLC-MS detection; set-up: key: +: Detected; −: Not detected; conditions: +ATP
[3] = Synthesis of N-acylamino acids from various fatty acids using purified acylamino acid synthetase, UPLC-MS detection; set-up: key: +: Detected; −: Not detected
Method in brief: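 Purified enzyme (200 μg/mL) with 5 mM amino acid, 5 mM sodium fatty acid (3 mM palmitate or stearate, plus 10% methanol), 10 mM ATP, 10 mM MgCl2, 1 mM DTT in 50 mM Tris-HCl pH 8.0, shaken 24 h at 25 °C. Amino acid varied by enzyme; product mass detected by UPLC-MS (ESI-negative).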

[4] = Synthesis of N-lauroylamino acid / N-lauroylamino acid derivative using purified acylamino acid synthetase, UPLC-MS detection; set-up: key: +: Detected; −: Not detected; conditions: +ATP; remark: listed apart in the source
Experimental: 0.2 mL of a reaction solution containing 50 mM Tris-HCl, 5 mM amino acid or D-amino acid derivative, 5 mM sodium laurate, 10 mM ATP, 10 mM MgCl2, 1 mM DTT, 200 μg/mL of the purified enzyme, pH 8.0 was incubated at 25° C. for 24 hours. After completion of the reaction, 0.8 mL of the reaction stop solution (1% (v/v) phosphoric acid, 75% (v/v) methanol) was added, and the mixture was filtrated through the filter followed by being subjected to the UPLC-MS analysis to detect a signal of a molecular weight corresponding to an N-lauroyl-amino acid or an N-lauroyl-amino acid derivative. The condition for the UPLC-MS analysis is as described in Example 2.
As a result of the UPLC-MS analysis, the signal of the molecular weight corresponding to the N-lauroyl-amino acid or the N-lauroyl-amino acid derivative was confirmed in the reaction solution containing the enzyme in combination with the amino acid or the amino acid derivative shown in Table 5 below.

[5] = substrates Sarcosine and sodium laurate
[6] = substrates Taurine and sodium laurate
[7] = substrates L-Asp and Capric acid
[8] = substrates L-Asp and Caproic acid
[9] = substrates L-Asp and Caprylic acid
[10] = substrates L-Asp and Lauric acid
[11] = substrates L-Asp and Linoleic acid
[12] = substrates L-Asp and Palmitic acid
[13] = substrates L-Asp and myristic acid
[14] = substrates Gly and sodium laurate
[15] = substrates L-Ala and sodium laurate
[16] = substrates L-Arg and sodium laurate
[17] = substrates L-Asp and sodium laurate
[18] = substrates L-Glu and sodium laurate
[19] = substrates L-Lys and sodium laurate
[20] = substrates L-Thr and sodium laurate
[21] = substrates β-Ala and sodium laurate

Nα-caprinoyl-L-aspartic acid detected [1]: 4.6 mM
Nα-capryloyl-L-aspartic acid detected [1]: 4.1 mM
Nα-lauroyl-L-aspartic acid detected [1]: 2.5 mM
signal of molecular weight corresponding to N-lauroyl amino acid derivative [2, 5]: +
signal of molecular weight corresponding to N-lauroyl amino acid derivative [2, 6]: +
signal of molecular weight corresponding to N-acylamino acid [3, 7]: +
signal of molecular weight corresponding to N-acylamino acid [3, 8]: +
signal of molecular weight corresponding to N-acylamino acid [3, 9]: +
signal of molecular weight corresponding to N-acylamino acid [3, 10]: +
signal of molecular weight corresponding to N-acylamino acid [3, 11]: −
signal of molecular weight corresponding to N-acylamino acid [3, 12]: +
signal of molecular weight corresponding to N-acylamino acid [3, 13]: +
signal of molecular weight corresponding to N-lauroyl amino acid [4, 14]: +
signal of molecular weight corresponding to N-lauroyl amino acid [4, 15]: +
signal of molecular weight corresponding to N-lauroyl amino acid [4, 16]: +
signal of molecular weight corresponding to N-lauroyl amino acid [4, 17]: +
signal of molecular weight corresponding to N-lauroyl amino acid [4, 18]: +
signal of molecular weight corresponding to N-lauroyl amino acid [4, 19]: +
signal of molecular weight corresponding to N-lauroyl amino acid [4, 20]: +
signal of molecular weight corresponding to N-lauroyl amino acid [4, 21]: +
B1: AtGH3-5: indole-3-acetic acid-amido synthetase GH3.5 from Arabidopsis thaliana, His-tagged (protein, listed as Arabidopsis thaliana)
chain: MPEAPKKESLEVFDLTLDQKNKQKLQLIEELTSNADQVQRQVLEEILTRNADVEYLRRHDLNGRTDRETFKNIMPVITYEDIEPEINRIANGDKSPILSSKPISEFLTSSGTSGGERKLMPTIEEELDRRSLLYSLLMPVMSQFVPGLENGKGMYFLFIKSESKTPGGLPARPVLTSYYKSSHFKERPYDPYTNYTSPNETILCSDSYQSMYSQMLCGLCQHQEVLRVGAVFASGFIRAIKFLEKHWIELVRDIRTGTLSSLITDPSVREAVAKILKPSPKLADFVEFECKKSSWQGIITRLWPNTKYVDVIVTGTMSQYIPTLDYYSNGLPLVCTMYASSECYFGVNLRPLCKPSEVSYTLIPSMAYFEFLPVHRNNGVTNSINLPKALTEKEQQELVDLVDVKLGQEYELVVTTYAGLCRYRVGDLLRVTGFKNKAPQFSFICRKNVVLSIDSDKTDEVELQNAVKNAVTHLVPFDASLSEYTSYADTSSIPGHYVLFWELCLDGNTPIPPSVFEDCCLAVEESFNTVYRQGRVSDKSIGPLEIKIVEPGTFDKLMDYAISLGASINQYKTPRCVKFAPIIELLNSRVVDSYFSPKCPKWVPGHKQWGSN
modifications: His-tag
notes: indole-3-acetic acid-amido synthetase GH3.5 from Arabidopsis thaliana, His-tagged

Nα-caprinoyl-L-aspartic acid detected [1]: 0.6 mM
Nα-capryloyl-L-aspartic acid detected [1]: 1.6 mM
Nα-lauroyl-L-aspartic acid detected [1]: 0.2 mM
signal of molecular weight corresponding to N-lauroyl amino acid derivative [2, 5]: −
signal of molecular weight corresponding to N-lauroyl amino acid derivative [2, 6]: +
signal of molecular weight corresponding to N-acylamino acid [3, 7]: +
signal of molecular weight corresponding to N-acylamino acid [3, 8]: +
signal of molecular weight corresponding to N-acylamino acid [3, 9]: +
signal of molecular weight corresponding to N-acylamino acid [3, 10]: +
signal of molecular weight corresponding to N-acylamino acid [3, 11]: +
signal of molecular weight corresponding to N-acylamino acid [3, 12]: +
signal of molecular weight corresponding to N-acylamino acid [3, 13]: +
signal of molecular weight corresponding to N-lauroyl amino acid [4, 14]: −
signal of molecular weight corresponding to N-lauroyl amino acid [4, 15]: −
signal of molecular weight corresponding to N-lauroyl amino acid [4, 16]: −
signal of molecular weight corresponding to N-lauroyl amino acid [4, 17]: +
signal of molecular weight corresponding to N-lauroyl amino acid [4, 18]: −
signal of molecular weight corresponding to N-lauroyl amino acid [4, 19]: +
signal of molecular weight corresponding to N-lauroyl amino acid [4, 20]: +
signal of molecular weight corresponding to N-lauroyl amino acid [4, 21]: −
B2: AtGH3-12: 4-substituted benzoates-glutamate ligase GH3.12 from Arabidopsis thaliana, His-tagged (protein, listed as Arabidopsis thaliana)
chain: MKPIFDINETFEKQLKDLTSNVKSIQDNLLEEIITPNTKTEYLQRFLIDRFDKELFKKNVPIVSYEDIKPYLDRVVNGESSDVISARTITGFLLSSGTSGGAQKMMPWNNKYLDNLTFIYDLRMQVITKHVKGVEEGKGMMFLFTKQESMTPSGLPARVATSSYFKSDYFKNRPSNWYYSYTSPDEVILCPNNTESLYCHLLCGLVQRDEVVRTGSIFASVMVRAIEVLKNSWEELCSNIRSGHLSNWVTDLGCQNSVSLVLGGPRPELADTIEEICNQNSWKGIVKRLWPNTKYIETVVTGSMGQYVPMLNYYCNDLPLVSTTYGSSETTFGINLDPLCKPEDVSYTFMPNMSYFEFIPMDGGDKNDVVDLEDVKLGCTYEPVVTNFAGLYRMRVGDIVLVTGFYNNAPQFKFVRRENVVLSIDSDKTNEEDLFKAVSQAKLVLESSGLDLKDFTSYADTSTFPGHYVVYLEVDTKEGEEKETAQFELDEEALSTCCLVMEESLDNVYKRCRFKDGSIGPLEIRVVRQGTFDSLMDFFISQGASTGQYKTPRCIKSGKALQVLETCVVAKFFSI
modifications: His-tag
notes: 4-substituted benzoates-glutamate ligase GH3.12 from Arabidopsis thaliana, His-tagged

Source: patent US12281340B2, “Method of producing N-acyl-amino group-containing compound” (AJINOMOTO CO., INC., priority 2018, dated 2025)
